Assay results published in the DeepSol protein solubility set.

experiment: soluble on expression in E. coli; label from the status in PepcDB or PDB records

Sequence	soluble on expression in E. coli
MGSDKIHHHHHHMELGIIYSGEFGKRFVSNLAYPYLCPTFGACGINGCDYCKRYDFSSSIVYAKELAEPQEIGLYVEEPESYLEPFECDIAVAINVHPDILVSLPEIGEFKALIVPACNQNWCLPGLRKQLAEKCGELGIEFASPKPFCSLTGNSGWISRFIDEFKIGRPEFRVERGGDAIKKVEVIKSDPCGSAYFVAKRMTGYIIESKEDFWKEIHQHQCAYPCMASMDRDVELKEAPFHLAGYIMVYQFSTAAGVEAEEFVPEHFREIVCRAR	not soluble
MGSDKIHHHHHHMELKILVTGGNVFVPGRLNAHFSTVVYLEHKDRRIIIDPGNLSSMDELEEKFSELGISPDDITDVLFTHVHLDHIFNSVLFENATFYVHEVYKTKNYLSFGTIVGRIYSKVISSWKNVVLLKGEESLFDEKVKVFHTPWHAREHLSFLLDTENAGRVLITGDITPNRLSYYDIIKGYGSVQVKNFLDRVGRIDLLVFPHDAPLKPEVKK	soluble
MGSDKIHHHHHHMENILDKLGIELNEQTRLTNDSKFTFNCHSGLSCFNTCCSNLDIVLTPYDILRMKNRLGLTSVEFISEYTEPVIQKESKLPFLKLKLGDEGKCRFVAAEGCTVYGDRPAACRYYPLGFGIYKNEEAGDDFYFLIREDHCKGFEEEREWTVGEWRKNQGVDEYDDKNRVWMEVILNKKLYSPELEPDEKSLKMFFMASYDLDAFRDFVFESRFLDVFDIEEERLEMIKNDEAELMLFAHQWLLFALFKKPTMNLKQV	not soluble
MGSDKIHHHHHHMEPEASPLFIDFAGISAGEKILDVGCGTGSLTFALLKAADLKEITAIDDSPVFVAETIRRSTDPRIKVEQGDACALAFDDGAFDRALALLVLHFVTDAGKAVAEMRRVVRPGGVVAASVWDHLGGMPGMRMMVDTVAALSEAGRQFRERYCFQPMMRPGEMKATFIEQGLLQVSETQLMIRMDYSNFDDYWSPMVAGEGPFGKFLSSLDAPDRARAEAAVREAYQAGQPDGPRSFANVAWACRGIAP	not soluble
MGSDKIHHHHHHMEQLLHYVWKHKIFPLKELKTTTGQQVEVIDTGLANTDAGPDFFNAKLKLDGVLWIGNIEIHERSSDWFKHGHHADAGYNSVILHIASEIDTEISRSNGERIPQIQLICPEAVRTNYKELLETDSYPPCYRIIPSLPPFTAHSWMTALQMERFEQKATLLNERLKRCQGNWEDAFFITLARNFGFGLNGDAFETWAHRLPFRAVDKHRNDLFQIEAIFFGQAGILEDSDGDGYYLRLKKEYTYLQHKFGLIPMDASLWRFLRLRPANFPHIRIAQLACLYHRAYGLLSRIMETETLQGVRDILKGGTSEYWLTHYTFGGSSPSRPKTLSNTSLDLLIINTVVTFLYAYGLHKGNRVLCARAGCFLEELKAENNYITRMWEQCGMKASNAADSQALIQLKKEYCDKKKCLYCRIGYEYLKRS	not soluble
MGSDKIHHHHHHMEQVDMGPAQAPPLFSGQLDARTRAASVDLHGCNVDYWVYEPVSVTAETRTMLVVHGFRGDHHGLLRVADQLPDMRLIMPDLPGFGSSDAFPDGGHSVRRYGQFISDFMAALGLGPDTVLLGHSFGSIVASHFAAANPGAVFPLILINPIAAPALEGPKGVMTKLAVIYYEASARLPRALGLYLLRSRLIVRVMSMAMAKTRDKQLLQFIHGQHNAYFSAFANRDSLLESFKASVGSNVSEVAPDLSLPVLLIAGEKDEIAMLPDQHKLQALLPDGTLEVIPGVGHLIHYETPQPAAGFIRRFLKDHPA	not soluble
MGSDKIHHHHHHMERMALHFEILENGKVKCLLCPHECVLDNGQIGLCGVRKNKNGSLVSLNYGEVTAIAMDPIEKKPLFHFNPGEQIFSVGTFGCNFKCGFCQNWEISQAKPETKRVTPEQLVKIAQMNRNSKGIAFTYNEPLVWYEFVLDTSRVAVREGMYCVLVTNGFINEEPLELLFQSVHAMNIDLKGFNRDFYREIGGDLDVVLRNIEKVYNAGIHVELTTLIIPGKNDDKEDLRREFEWIADLDKDIPLHISRYFPNYKYTIPPTPIEELIEIYEMAREYLNFVYLGNVWDERYESTFCPDCGNLVIRRQGYEVEKVGLDEEGKCTKCGRQIATIIG	not soluble
MGSDKIHHHHHHMERNEIEQLVAHGIFPYDQQAKTRLIETAISYILLKGSYAYKIKKNIKLSFLDFSTLEKRRHFCYEELRLNQRLAKDMYINVFAVSKKGKQWSISTGPAKAKEYVILMKGMNPDHQLNALLKKNRITKKPIRQLAQQLADFHQNEKSLSLTYDPFFLSREFADIEKFSSTIEKKLGVDYYKLVQTCIQLSNHFVLLQQEFISKRPCLGYFKNCHGDLHSQNIFIEKKPVIFDCIEFREAFRHIDVLNEIAFLCMDLETYGYADLSKIFLTDYIKKTGYAFGKKEQLLFTYFKAYRSCIRAKVHTIEMSQHPSSTQIKEKVKKYIEGMAGYMIEIAGKF	not soluble
MGSDKIHHHHHHMERNEMLKKVEAAMPNARFKHTLGVEKAAVELAEHYHMDVEKARITALLHDYAKYYDDDKARKIIEDEGYDPRLLSFHRSLWHAPVGAYLAEKEFGITDTEILEAIRLHTTGSATMSDFDKLIYLADYTEQGRTFPGVYKARRLALKSLNEAMLFALSNTITHLVKKQQLVFPDTLDAYNYFVNLNLEGDY	not soluble
MGSDKIHHHHHHMERRRWLGAMAGVCPSCGRTLEGSGVRRLCPDCYVERYGVARIPEAVKFVYCRDCGAYRYQGGWNEGLESVEDTLREYLHMVLTVRMKPTEAVEEAWVESIELVQAFAGPGVYTALVTVAGRAGGQSLVERKIITVEASQALCPRCTARSTGRGFEAEVKVRSTAGSLGRDVKTGIARVLRRSRSIAGFVVKVDENREGLDIYLTDQTAARMLAGKLRSEFSAEVKESYKLVGRQPSGRRKGRLTISVRIPEYRPGELISVEGRPHLYLGRSGRGLVTIDLDTGRERVVDTSRTGVLAGVKRYEPGARLRRMMLLSSSGDSMVFLDVDKGMQEVVDAPRGSVRPFVESMEPGRVYEVFIHGGRIYVLRETG	not soluble
MGSDKIHHHHHHMESENQEYQNEADLLSKQEEWCDEEFQEEDSFDIKEYDITTSPNDFNTKTMFDFIESGAVKIPGFQRNYVWDIKRASKLIESIIIGLPVPQIFLYEEARNRFLVIDGQQRLMSIYYFVKQRFPIYEKRIELRHIFDENGKIPGEVLHNDKYFTKFNLQLPSRLSNQRNKLHSLNYSTLDEYKITFDLRTIRNIIIKQNFPSDDNSSIYEVFNRLNSGGMNLKPQEIRASLYHSDFYTMLYRINALPEWRKIVGVEPDLHMKDIEILLRGFAMLVKGTEYKPSMAKFLNEFSSGCKKLEAQKIQYLEELFHSFLSSCSNLPEKAFYGKITNKFNLSMFESIFFAHCKKSFAQEIFIEDKLDYTQLERLKSDPEFINAIQNRTSSTANVKARLERAVSILAEEV	not soluble
MGSDKIHHHHHHMESSTNPWWVPEDFLAKLQKRVNPEKLAKYGLNDIRQAYFGIYLGIRLDDGSRAPQFLPYKPGFANHIFFLGRSGYGKTSIMRALAEGIYDYFYLNGRKALIIIIEAKYDKTKVKKLMTFREYIIQNFGYDYLLENYPWLENYLQEYSQKRPLLGKIGDFAFGWPNVEGIMTKVDSHHNQFQRHRLQPMIYPSTRIVFRPTRDLSLISRDNGMNVQVVEGKISYERLEVEDLTKFTYVNTQTNYMRILDIYWGQKKIRDPDRFLKEVIRNEYPPRSGETIEDILRSRDRTIANLRTLMNKLKSDRLFTKDPKEEFVKKLTPDRINVIDFSANSRLSDEEEAEIFNILVNYVVNEFALKKDIPVFIIVDEVQNIAKHRLGMAAINKIYREGRSLEISLISGTQYLSGLSKDLVRGATHIGIVGRLASERDAELLEEILDERFDTGEKPRSLQELFRIRKARRGKGKFSIDCEYTFTIEYRVPKTL	not soluble
MGSDKIHHHHHHMESYKGNKTTRKQIVSSIQMDIIKNRKIGEKLPSESEYANLFGTARSTVQKALRDLETMQLIEKVQGKGSFVIFKHPKIEMFNFRGFSEYAHQIGATPITKLIKKKKIDNGHKMLLKRLRSIKINDEIAPLTFDESILSLDDFPGLDQYNFEKGSLYDVLRNKYNTYPAIANLEVIPVAPEEEISNLLRVSKGNPLLKVNGFVYDSNSEIMEKVGIIYSDQARFKFTLGI	not soluble
MGSDKIHHHHHHMETGLLLTLLNKTTSLSVNQKTGIEVVSCTFNDLINTFQKAIPNTNIKGQLCIPEYQRPYVWKEKQINRLLDDFIEYYKNTDNDKPLFYLGSIIVHKDEGTLKIIDGQQRITTLLLINSIINKEIKSGIQYTSTTSINNIKRNFSYLKSVHAKDVFDYADTEVLNYIDFDKINVTLVVTATEDLAYTFFETQNTGGVRLSGSDIIKAHHLRAISSEKNINYQARKWEGIESEKIESIIQNLTKIRFWDNRNWRRFPFYRDEKGIKEVLIEEFTENTKHDKEDISFYYSAVKMEAGRAFQMHESNYKQLKQPLSDGNNTLDYINDYVHLHDVLFNRSKKDYRVSDAFYDFNEKLMHGNSGTLFLKELLEICIITYVSRFGFYRLFEASLWLYRSIYSLRVSSSRNVREDSIFKFVFENQFIDNIIEVYTVDELILYLKRFKYTFNTDNLGVKESKDKHIGSLNNYFNEFGKTEDFKKTPKAFDKAFLTAIVTKIKENNEQ	not soluble
MGSDKIHHHHHHMETQQLLSIYPQATISPRPSVAKNMVCVAIDAGKYICIDTTNLSNRELSLLELLTHTKSNATTGDAWSEFLTGRHTTAPQTTAKKLQILQFRVHFTERHADRSQWLSAIADTFEHVLHRAFITADSGYLLLTESLTDTSADLASLLALIDNDFYTNTHLFIGSTHRSSQDLPTTFALEQQLFSQNQQDTIVTLSSSLLPFLVNQHQPELQALRNSLSLDSDNKQLIRALYHTQGNVRQAASKLFLHRNTLLYRIEKFERCNGLNLKNMDDLVYCYLLTLGQVINQVEK	not soluble
MGSDKIHHHHHHMEVFCDVDDFCAVFIPEWEKTLLTDGTRKRQRAGRMTMSEVMTIIILFQMSHHRDFKNFYIGYLAHFYKSAFPNLLSYTRFLEVMPTALVPLCSDFTCLKSEPTGTEFVDSTRIKVCHNLRIHRHKTLAGLACRGKGTMGWFYGFKLHLIVNHQGGIVAAKVTPANVHDTKPMNEMVRSDMDKLYADKGFISKALSSELQEKGVTLVTNVRKNMKEKVMSLWDRAMLSRRFIIETINDQLKNISQIEHSRHRSGHGFMLNMIAGLIAYQLKDNKPQLNITSAEFNAIAVMAR	not soluble
MGSDKIHHHHHHMEVNRLSALTPPMGWNSWDCYGASVTEEEVLGNAEYMANHLKKYGWEYIVVDIQWYEPTANSSAYNPFAPLCMDEYGRLLPATNRFPSAKNGAGFKPLSDAIHDLGLKFGIHIMRGIPRQAVYENSPVLGSTKTAREIAHTNSICPWNTDMYGVDPTKEGAQSYYNSLFELYAQWGVDFVKVDDIAASRLYDTHLEEIKMIQRAIQACGRPMVLSLSPGPAPIKYAHHFKTNANMWRITDDFWDDWSLLYQMFERCEVWEKHIGTGHWPDCGMLPLGHIGIRSVDGPGGDRWTRFTKDEQLTMMNLWAICHSPLMFGGELRDNDEWTLSLLTNEGILSINQKSVLNRFVYREEDKVAWAANGRNGEAYVALFNLHDQQKTLQFRLDMVGIMETVQLFNVWDRSFLQSLAPSESFQIELKPHQSMMLKLSPDR	not soluble
MGSDKIHHHHHHMFDPETLRTFISVAETGSFSKAAERLCKTTATISYRIKLLEENTGVGLFFRTTRSVSLTAAGSHLLSQAKDWLAWLDSMPDELRQVNDGVERQVNIVVNNLLYSPQAVASLLSWLNARYPFTQFHFSRQIYMGVWDSLLYEGFSLAIGVTGTEPLANTFMLDPLGSVQWRFVMSADHPLAHVSGPLTEAQLRRFPAINIEDSARTLTKRVAWRLPGQKEIIVPDMETKIAAHLAGVGIGFVPQPLCQTLIDKNELVSCTIPTMRPPSPLSLAWHKFGGGKAVEDIVKLFTQRQPEIAGFLSIFNTVRC	not soluble
